Measurements from PMC8049995 (The Journal of Biological Chemistry, 2021).

B1: Human peroxiredoxin 2 C172W mutant, reduced (enzyme, UniProt P32119 2-198, looked up)
chain: ASGNARIGKPAPDFKATAVVDGAFKEVKLSDYKGKYVVLFFYPLDFTFVCPTEIIAFSNRAEDFRKLGCEVLGVSVDSQFTHLAWINTPRKEGGLGPLNIPLLADVTRRLSEDYGVLKTDEGIAYRGLFIIDGKGVLRQITVNDLPVGRSVDEALRLVQAFQYTDEHGEVWPAGWKPGSDTIKPNVDDSKEYFSKHN
B2: Human peroxiredoxin 2, recombinant wild type, hyperoxidized (CP sulfinate) form (enzyme, UniProt P32119 2-198, looked up)
chain: ASGNARIGKPAPDFKATAVVDGAFKEVKLSDYKGKYVVLFFYPLDFTFVCPTEIIAFSNRAEDFRKLGCEVLGVSVDSQFTHLAWINTPRKEGGLGPLNIPLLADVTRRLSEDYGVLKTDEGIAYRGLFIIDGKGVLRQITVNDLPVGRSVDEALRLVQAFQYTDEHGEVCPAGWKPGSDTIKPNVDDSKEYFSKHN
modifications: Cys51 (CP) sulfinate
B3: Human peroxiredoxin 2 C172S mutant, reduced (enzyme, UniProt P32119 2-198, looked up)
chain: ASGNARIGKPAPDFKATAVVDGAFKEVKLSDYKGKYVVLFFYPLDFTFVCPTEIIAFSNRAEDFRKLGCEVLGVSVDSQFTHLAWINTPRKEGGLGPLNIPLLADVTRRLSEDYGVLKTDEGIAYRGLFIIDGKGVLRQITVNDLPVGRSVDEALRLVQAFQYTDEHGEVSPAGWKPGSDTIKPNVDDSKEYFSKHN
B4: Human peroxiredoxin 2 C172D mutant, reduced (enzyme, UniProt P32119 2-198, looked up)
chain: ASGNARIGKPAPDFKATAVVDGAFKEVKLSDYKGKYVVLFFYPLDFTFVCPTEIIAFSNRAEDFRKLGCEVLGVSVDSQFTHLAWINTPRKEGGLGPLNIPLLADVTRRLSEDYGVLKTDEGIAYRGLFIIDGKGVLRQITVNDLPVGRSVDEALRLVQAFQYTDEHGEVDPAGWKPGSDTIKPNVDDSKEYFSKHN

Key:
SEC-MALS = target: the molecule itself; assay: SEC-MALS
SEC = target: the molecule itself; assay: SEC
crystal structure = target: the molecule itself; assay: crystal structure
AUC = target: the molecule itself; assay: AUC

Protein	stoichiometry N (SEC-MALS)	percent decamer (SEC)	stoichiometry N (crystal structure)	stoichiometry N (AUC)
B1	10	62%	–	–
B2	–	–	10	–
B3	–	60%	–	10
B4	–	45%	–	10
